From patent US20220064329A1

Target: recombinant human activated Factor VII (FVIIa) (human) (UniProt P08709)
Assay: cell-based or functional assay

recombinant human activated Factor VII (FVIIa) (human), sequence (P08709 61-212, chain 1 of 2): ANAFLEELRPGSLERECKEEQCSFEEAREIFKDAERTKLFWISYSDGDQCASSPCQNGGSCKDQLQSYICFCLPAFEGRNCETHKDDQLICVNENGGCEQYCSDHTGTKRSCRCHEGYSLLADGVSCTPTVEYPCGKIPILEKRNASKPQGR
recombinant human activated Factor VII (FVIIa) (human), sequence (P08709 213-466, chain 2 of 2): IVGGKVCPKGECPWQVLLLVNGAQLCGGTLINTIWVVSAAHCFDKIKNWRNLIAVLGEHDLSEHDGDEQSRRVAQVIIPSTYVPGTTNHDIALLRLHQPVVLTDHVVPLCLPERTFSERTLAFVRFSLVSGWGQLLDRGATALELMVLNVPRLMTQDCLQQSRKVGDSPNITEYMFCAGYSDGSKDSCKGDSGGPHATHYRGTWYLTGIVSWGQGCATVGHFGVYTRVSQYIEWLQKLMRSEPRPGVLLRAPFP

Row | Substance | apparent second order rate constant of inhibition of FVIIa by alpha-2-macroglobulin, no antibody [M⁻¹ s⁻¹] | apparent second order rate constant (kinh) of inhibition of free FVIIa by antithrombin [M⁻¹ s⁻¹]
1 | human plasma-derived alpha-2-macroglobulin (from UniProt P01023 24-1474) | 475 | 
2 | human plasma-derived antithrombin (AT) (from UniProt P01008 33-464) |  | 124
